Measurements reported in PMC8934646, “The intrinsically disordered TSSC4 protein acts as a helicase inhibitor, placeholder and multi-interaction coordinator during snRNP assembly and recycling” (Nucleic Acids Research, 2022).

Target: T1, SNRNP200 helicase region (SNRNP200^HR) (human, UniProt O75643 395-2129)
T1 construct: human SNRNP200 helicase region, residues 395-2129
Experiment: SEC; competitive binding: 5 μM pre-formed SNRNP200^HR-FBP21^200–376 or SNRNP200^HR-C9ORF78 complex incubated with 5 μM GST-TSSC4 in 50 μl, 10 min on ice, then analytical SEC as in a1
Conditions: both partners purified

T1 sequence (O75643 395-2129): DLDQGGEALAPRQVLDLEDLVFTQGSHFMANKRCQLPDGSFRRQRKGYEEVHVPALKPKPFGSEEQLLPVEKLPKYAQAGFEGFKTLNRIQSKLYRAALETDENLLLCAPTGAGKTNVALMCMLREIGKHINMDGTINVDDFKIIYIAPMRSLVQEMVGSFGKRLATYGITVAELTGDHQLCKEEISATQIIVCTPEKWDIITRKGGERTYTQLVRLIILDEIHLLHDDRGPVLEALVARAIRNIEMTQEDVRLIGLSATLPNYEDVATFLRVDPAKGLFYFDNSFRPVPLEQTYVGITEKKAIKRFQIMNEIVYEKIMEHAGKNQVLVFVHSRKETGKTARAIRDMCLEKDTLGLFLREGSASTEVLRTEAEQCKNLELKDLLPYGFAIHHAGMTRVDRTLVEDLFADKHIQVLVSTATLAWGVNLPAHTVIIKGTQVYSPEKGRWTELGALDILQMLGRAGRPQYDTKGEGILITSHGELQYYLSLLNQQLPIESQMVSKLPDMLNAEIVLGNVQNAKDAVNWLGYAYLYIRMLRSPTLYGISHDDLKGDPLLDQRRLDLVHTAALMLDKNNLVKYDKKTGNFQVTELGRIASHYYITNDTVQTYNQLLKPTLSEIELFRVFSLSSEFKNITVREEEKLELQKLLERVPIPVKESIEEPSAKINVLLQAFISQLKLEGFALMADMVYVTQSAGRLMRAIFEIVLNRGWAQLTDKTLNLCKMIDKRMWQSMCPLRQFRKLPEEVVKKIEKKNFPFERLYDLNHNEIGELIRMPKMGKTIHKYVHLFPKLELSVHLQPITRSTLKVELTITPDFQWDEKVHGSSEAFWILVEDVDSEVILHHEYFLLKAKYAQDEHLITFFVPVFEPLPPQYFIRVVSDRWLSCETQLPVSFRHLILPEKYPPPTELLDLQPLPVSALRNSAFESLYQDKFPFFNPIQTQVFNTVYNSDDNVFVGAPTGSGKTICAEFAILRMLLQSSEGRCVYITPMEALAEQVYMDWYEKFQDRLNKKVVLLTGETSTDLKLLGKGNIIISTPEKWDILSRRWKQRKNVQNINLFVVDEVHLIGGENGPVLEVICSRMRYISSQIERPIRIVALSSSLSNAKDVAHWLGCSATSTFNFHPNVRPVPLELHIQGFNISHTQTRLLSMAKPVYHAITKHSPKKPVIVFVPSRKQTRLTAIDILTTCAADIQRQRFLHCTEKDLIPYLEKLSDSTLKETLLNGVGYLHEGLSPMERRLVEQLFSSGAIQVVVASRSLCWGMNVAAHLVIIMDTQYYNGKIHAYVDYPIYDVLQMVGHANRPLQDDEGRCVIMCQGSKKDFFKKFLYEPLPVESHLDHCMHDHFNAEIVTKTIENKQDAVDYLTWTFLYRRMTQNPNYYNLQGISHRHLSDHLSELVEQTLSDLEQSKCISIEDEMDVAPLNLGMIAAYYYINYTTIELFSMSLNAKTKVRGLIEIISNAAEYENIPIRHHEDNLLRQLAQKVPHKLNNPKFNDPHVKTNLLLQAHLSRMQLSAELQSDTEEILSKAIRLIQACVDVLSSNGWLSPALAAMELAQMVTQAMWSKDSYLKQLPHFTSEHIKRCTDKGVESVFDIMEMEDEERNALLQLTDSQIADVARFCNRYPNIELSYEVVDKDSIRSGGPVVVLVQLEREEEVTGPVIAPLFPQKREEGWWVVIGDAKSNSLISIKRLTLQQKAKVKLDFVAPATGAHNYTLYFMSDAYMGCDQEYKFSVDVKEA

binding result: binds
B1: C-terminal fragment of FBP21 (FBP21^200–376) (domain or fragment, human, UniProt O75554 200-376, looked up)
chain: HTSDLPSSKVNENSLGTLDESKSSDSHSDSDGEQEAEEGGVSTETEKPKIKFKEKNKNSDGGSDPETQKEKSIQKQNSLGSNEEKSKTLKKSNPYGEWQEIKQEVESHEEVDLELPSTENEYVSTSEADGGGEPKVVFKEKTVTSLGVMADGVAPVFKKRRTENGKSRNLRQRGDDQ
